We go through two molecules from patent publication US20160297873A1 (VIRGINIA COMMONWEALTH UNIVERSITY, published 2016).

Test [1] concerns the target biotinylated DENND1A.V2 specific 21 amino acid peptide … (Biotin-CH22) (human). Briefly: QC phage ELISA-1, helper phage control, coating Biotin-CH22.
Test [2] shares this target. Briefly: QC phage ELISA-2, helper phage control, coating Biotin-CH22.
The target in test [3] is T1, biotinylated DENND1A.V2 specific 21 amino acid peptide QKSITHFAAKFPTRGWTSSSH (Biotin-CH22) (human, biotinylated (position not given)).
T1 construct: Immobilised on streptavidin pre-coated plates; The label CH22 is not explained; also called Bio-CH-22; bio-peptide
T1 peptide: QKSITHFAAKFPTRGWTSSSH
Briefly: ELISA (FIG. 11C).

On to M13KO7 helper phage, for which the phage ELISA signal in test [1] was 0.477; in test [2] it was 0.533.

B1: human recombinant DENND1A.V2 specific IgG1 (V2 hmAB) (antibody, V domains shown)
VH: EVQLLESGGGLVQPGGSLRLSCAASGFTFSSYAMSWVRQAPGKGLEWVSIIGTDGDDTNYADSVKGRFTISRDNSKNTLYLQMNSLRAEDTAVYYCAKAEASFDYWGQGTLVTVSS
VL: DIQMTQSPSSLSASVGDRVTITCRASQSISSYLNWYQQKPGKAPKLLIYGASDLQSGVPSRFSGSGSGTDFTLTISSLQPEDFATYYCQQYDSAPSTFGQGTKVEIKR
notes: Expressed in 293E cells, Protein A purified; also called humanized monoclonal antibody; recombinant DENND1A.V2 IgG1
Turning to B1, the binding result in test [3] is on record as “binds”.
